In ChEMBL document CHEMBL2074013, “Effect of 17 beta-estradiol-D-17 beta-glucuronide on the rat organic anion transporting polypeptide 2-mediated transport differs depending on substrates” (Drug Metab Dispos, 2002):

Substrate: C[C@H]1O[C@@H](O[C@H]2[C@@H](O)C[C@H](O[C@H]3[C@@H](O)C[C@H](O[C@H]4CC[C@@]5(C)[C@H](CC[C@@H]6[C@@H]5C[C@@H](O)[C@]5(C)[C@@H](C7=CC(=O)OC7)CC[C@]65O)C4)O[C@@H]3C)O[C@@H]2C)C[C@H](O)[C@@H]1O
Assay: cells, lysate or membranes named
Description: TP_TRANSPORTER: uptake in Oatp2-expressing LLC-PK1 cells

B1: Solute carrier organic anion transporter family member 1A4 (Rattus norvegicus) (protein)
chain: MGKSEKRVATHGVRCFAKIKMFLLALTCAYVSKSLSGTYMNSMLTQIERQFGIPTSIVGLINGSFEIGNLLLIIFVSYFGTKLHRPIMIGVGCAVMGLGCFLISLPHFLMGQYEYETILPTSNVSSNSFFCVENRSQTLNPTQDPSECVKEMKSLMWIYVLVGNIIRGIGETPIMPLGISYIEDFAKSENSPLYIGILETGMTIGPLIGLLLASSCANIYVDIESVNTDDLTITPTDTRWVGAWWIGFLVCAGVNILTSFPFFFFPKTLPKEGLQENVDGTENAKEKKHRKKAKEEKRGITKDFFVFMKSLSCNPIYMLFILISVLQFNAFINSFTFMPKYLEQQYGKSTAEVVFLMGLYMLPPICLGYLIGGLIMKKFKVTVKKAAHLAFWLCLSEYLLSFLSYVMTCDNFPVAGLTTSYEGVQHQLYVENKVLADCNTRCNCSTNTWDPVCGDNGLAYMSACLAGCEKSVGTGTNMVFQNCSCIQSSGNSSAVLGLCNKGPDCANKLQYFLIIAIFGCFIYSLAGIPGYMVLLRCIKSEEKSLGVGLHAFCIRILAGIPAPIYFGALIDRTCLHWGTLKCGEPGACRMYDINSFRRLYLGLPAALRGASFVPAFFILRLTRTFQFPGDIESSKTDHAEMKLTLKESECTEVLRSKVTED
Protein B1 has a Km of 1.07 µM.
